Blank lines part the entries; values can stand above or below the molecule they belong to.
Target: T1, human iRhom1 (Homo sapiens, UniProt Q96CC6)
T1 construct: expressed in transfected cells; host or cells: immortalized iRhom1/2-/- DKO mouse embryonic fibroblasts, pMSCV retroviral infection
T1 sequence (Q96CC6 1-855): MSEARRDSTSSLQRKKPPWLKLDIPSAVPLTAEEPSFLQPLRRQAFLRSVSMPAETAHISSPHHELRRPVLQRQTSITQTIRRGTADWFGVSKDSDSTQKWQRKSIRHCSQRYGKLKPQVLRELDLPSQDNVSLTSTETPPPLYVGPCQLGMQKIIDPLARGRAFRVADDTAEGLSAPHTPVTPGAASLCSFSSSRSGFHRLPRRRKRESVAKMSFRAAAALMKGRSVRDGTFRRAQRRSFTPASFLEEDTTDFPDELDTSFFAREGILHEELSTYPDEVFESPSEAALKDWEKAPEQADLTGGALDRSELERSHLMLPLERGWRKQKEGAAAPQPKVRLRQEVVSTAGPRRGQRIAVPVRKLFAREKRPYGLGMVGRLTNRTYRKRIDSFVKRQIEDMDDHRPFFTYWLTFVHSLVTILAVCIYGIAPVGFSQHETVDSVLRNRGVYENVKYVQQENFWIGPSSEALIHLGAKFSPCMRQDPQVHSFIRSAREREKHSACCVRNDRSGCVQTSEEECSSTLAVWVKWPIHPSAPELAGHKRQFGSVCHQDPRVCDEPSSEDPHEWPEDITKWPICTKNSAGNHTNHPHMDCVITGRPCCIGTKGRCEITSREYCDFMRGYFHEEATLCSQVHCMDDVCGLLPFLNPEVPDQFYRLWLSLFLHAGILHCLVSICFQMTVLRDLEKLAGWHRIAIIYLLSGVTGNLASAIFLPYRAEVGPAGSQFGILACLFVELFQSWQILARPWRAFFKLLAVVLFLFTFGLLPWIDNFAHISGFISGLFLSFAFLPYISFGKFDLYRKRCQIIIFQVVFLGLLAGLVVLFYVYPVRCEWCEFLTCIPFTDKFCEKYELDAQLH
Experiment: FACS binding specificity on MEF-DKO-hiR1-FL-WT-T7 cells
Conditions: antibody at 3 μg/ml
Description: Due to the sequence homology of the human iRhom2 protein versus its closely related family member human iRhom1 (referring to the NCBI reference sequence NP_078875.4. for human iRhom2 and the NCBI reference sequence NP_071895.3 for human iRhom1, the amino acid sequence identity for the extracellular loops 1, 2, 3 and the C-terminal tail of human iRhom2 versus human iRhom1 are calculated as 67.4%, 100.00%, 80.00% and 63.64%, respectively), the binding specificity of the humanized antibodies 16-B-03, 16-B-05, 16-B-07, 23-B-04, 42-B-02, 42-B-04 of the invention for human iRhom2 versus human iRhom1 was assessed as a next step. For this purpose, iRhom1/2−/− DKO MEFs stably expressing a tagged form of human iRhom1 were generated.
In brief, on day 1, Phoenix-ECO cells (American Type Culture Collection, USA) were seeded on 6-well tissue culture plates (Greiner, Germany) in standard growth medium at 8×10^5 cells per well and kept overnight at 37° C., 5% CO2. On day 2, the medium was replaced by fresh medium supplemented with chloroquine (Sigma-Aldrich, USA) at a final concentration of 25 μM. Applying the calcium phosphate method, cells were transfected with 2 μg/ml of pMSCV-hiR1-FL-WT-T7 (SEQ ID NO 50) encoding human iRhom1 full length wild type C-terminally tagged with 3 consecutive copies of the T7 epitope, and were kept at 37° C., 5% CO2. After 7 hours, the transfections were stopped by replacing cell supernatants with standard growth medium lacking chloroquine, and cells were incubated at 37° C., 5% CO2 to allow virus production overnight. In parallel, immortalized iRhom1/2−/− DKO MEFs as target cells for retroviral infection were seeded on 6-well tissue culture plates (Greiner, Germany) in standard growth medium at 1×10^5 cells per well and were also kept overnight at 37° C., 5% CO2. On day 3, the supernatants of Phoenix-ECO cells releasing pMSCV-hiR1-FL-WT-T7 ecotrophic virus were collected, filtered with 0.45 μm CA filters, and supplemented with 4 μg/ml of polybrene (Sigma-Aldrich, USA). Upon removal of medium from the immortalized iRhom1/2−/− DKO MEFs, these supernatants were added to the target cells for 4 hours at 37° C., 5% CO2 for first infection. Simultaneously, Phoenix-ECO cells were re-incubated with fresh medium, which, after another 4 hours, was filtered and used for the second infection of the respective target cell populations, again in the presence of 4 μg/ml of polybrene. Likewise, a third, but overnight infection cycle was performed. On day 4, virus containing cell supernatants were replaced by fresh standard growth medium. From day 5 onwards, cells were grown in the presence of 2 mg/ml of geneticin (G418, Thermo Fisher Scientific, USA) for the selection of immortalized MEF-DKO-hiR1-FL-WT-T7 cells stably expressing human iRhom1 full length wild type C-terminally tagged with 3 consecutive copies of the T7 epitope. Upon propagation, cells were stocked for future usage.
In brief, in addition to immortalized MEF-DKO-EV control cells and MEF-DKO-hiR2-FL-WT-T7 cells (as already described in example 3), MEF-DKO-hiR1-FL-WT-T7 cells were harvested with 10 mM EDTA in PBS, washed and resuspended in FACS buffer (PBS, 3% FBS, 0.05% sodium azide), and seeded in Nunc U-bottom 96-well plates (Thermo Fisher Scientific, USA) at approximately 3×10^5 cells per well. To pellet cells and remove supernatants, the plates were centrifuged at 1,500 rpm and 4° C. for 3 minutes. For primary staining, cells were resuspended in 100 μl per well of either FACS buffer alone (controls), mouse monoclonal anti-T7 IgG (Merck Millipore, USA) at 3 μg/ml FACS buffer or the humanized antibodies 16-B-03, 16-B-05, 16-B-07, 23-B-04, 42-B-02, 42-B-04 of the invention also at 3 μg/ml FACS buffer and incubated on ice for 1 hour. Afterwards, plates were centrifuged at 1,500 rpm and 4° C. for 3 minutes and washed twice with 200 μl per well of FACS buffer. […]

binding to human iRhom1 on MEF-DKO-hiR1-FL-WT-T7 cells: no significant binding
B1: 16-B-03: humanized antibody binding human iRhom2; HCVD SEQ ID NO 1, LCVD SEQ ID NO 5 (antibody, V domains shown)
VH: QVTLRESGPALVKPTQTLTLTCTFSGFSLSTFALGVGWIRQPPGKALEWLAHIWWDDDKYYNPALKSRLTISKDTSKNQVVLTITNMDPVDTATYYCARITTYYYGMDYWGQGTLVTVSS
VL: EIVMTQSPDFQSVTPKEKVTITCRASQSIGNHLHWYQQKPDASPKLLIKYASQSISGVPSRFSGSGSGTDFTLTINSLEAEDAATYFCQQSYQWPLTFGQGTKLEIK
modifications: antibody sequences

B2: 16-B-07: humanized antibody binding human iRhom2; HCVD SEQ ID NO 17, LCVD SEQ ID NO 21 (antibody, V domains shown)
VH: QVTLRESGPALVKPTQTLTLTCTFSGFSLSTFALGVGWIRQPPGKALEWLAHIWWDEDKYYNPALKSRLTISKDTSKNQVVLTITNMDPVDTATYYCARITTYYYGMDYWGQGTLVTVSS
VL: EIVMTQSPDFQSVTPKEKVTITCRASQSIGNHLHWYQQKPDASPKLLIKYASQSISGVPSRFSGSGSGTDFTLTINSLEAEDAATYFCQQSYQWPLTFGQGTKLEIK
modifications: antibody sequences
binding to human iRhom1 on MEF-DKO-hiR1-FL-WT-T7 cells: none of these humanized antibodies of the invention recognizes human iRhom1

B3: 16-B-05: humanized antibody binding human iRhom2; HCVD SEQ ID NO 9, LCVD SEQ ID NO 13 (antibody, V domains shown)
VH: QVTLRESGPALVKPTQTLTLTCTFSGFSLSTFALGVGWIRQPPGKALEWLAHIWWDEDKYYNPALKSRLTISKDTSKNQVVLTITNMDPVDTATYYCARITTYYYGMDYWGQGTLVTVSS
VL: EIVMTQSPDFQSVTPKEKVTITCRASQSIGNHLHWYQQKPDASPKLLIKYASQSISGVPSRFSGSGSGTDFTLTINSLEAEDAATYFCQQSYNWPLTFGQGTKLEIK
modifications: antibody sequences
binding to human iRhom1 on MEF-DKO-hiR1-FL-WT-T7 cells: none of these humanized antibodies of the invention recognizes human iRhom1

B4: 23-B-04: humanized antibody binding human iRhom2; HCVD SEQ ID NO 25, LCVD SEQ ID NO 29 (antibody, V domains shown)
VH: QVTLRESGPALVKPTQTLTLTCTFSGFSLSTFGMGVGWIRQPPGKALEWLAHIWWDDEKYYNSALKSRLTISKDTSKNQVVLTITNMDPVDTATYYCARISNYGSNYWYFNVWGQGTLVTVSS
VL: AIQLTQSPSSLSASVGDRVTITCRASSSVSYMYWYQQKPGKAPKVLIYDTSNLASGVPSRFSGSGSGTDYTLTISSLQPEDFATYYCQQWNAYPLTFGQGTKLEIK
modifications: antibody sequences
binding to human iRhom1 on MEF-DKO-hiR1-FL-WT-T7 cells: none of these humanized antibodies of the invention recognizes human iRhom1

B5: 42-B-02: humanized antibody binding human iRhom2; HCVD SEQ ID NO 33, LCVD SEQ ID NO 37 (antibody, V domains shown)
VH: QVTLRESGPALVKPTQTLTLTCTFSGFSLSTFGRGVGWIRQPPGKALEWLAHIWWDDEKYYNSALKSRLTISKDTSKNQVVLTITNMDPVDTATYYCARIQNYGSNYWYFDVWGQGTLVTVSS
VL: AIQLTQSPSSLSASVGDRVTITCRASSRISYMFWYQQKPGKAPKVLIYDTSNLASGVPSRFSGSGSGTDYTLTISSLQPEDFATYYCQQWNSYPLTFGQGTKLEIK
modifications: antibody sequences
binding to human iRhom1 on MEF-DKO-hiR1-FL-WT-T7 cells: none of these humanized antibodies of the invention recognizes human iRhom1

B6: 42-B-04: humanized antibody binding human iRhom2; HCVD SEQ ID NO 41, LCVD SEQ ID NO 45 (antibody, V domains shown)
VH: QVTLRESGPALVKPTQTLTLTCTFSGFSLSTFGRGVGWIRQPPGKALEWLAHIWWDDEKYYNSALKSRLTISKDTSKNQVVLTITNMDPVDTATYYCARIQNYGSNYWYFDVWGQGTLVTVSS
VL: AIQLTQSPSSLSASVGDRVTITCRASSRISYMFWYQQKPGKAPKVLIYDTSNLASGVPSRFSGSGSGTDYTLTISSLQPEDFATYYCQQWNAYPLTFGQGTKLEIK
modifications: antibody sequences
binding to human iRhom1 on MEF-DKO-hiR1-FL-WT-T7 cells: none of these humanized antibodies of the invention recognizes human iRhom1
